Three molecules from patent US20120316071A1 (published 2012) can be followed below.

Experiment [1] addresses T1, Recombinant Human DLL4 (R&D Systems Cat#1506-D4/CF) (human, UniProt Q9NR61 27-524).
T1 construct: Bought recombinant protein; also called delta-like protein 4; rHuman DLL4
Kind of experiment: ECL multispot (MSD) assay, antigen spotted on plate; blank spot of this row 327.

Experiment [2] deals with T2, rHuman EGF R/Fc Chimera, CF (R&D Systems Cat#344-ER) (human, UniProt P00533 25-645).
T2 construct: Bought recombinant protein; also called epidermal growth factor receptor; Fc part of the bought chimera not given
The description is as above.

In experiment [3] the target is T3, rHuman IGF-1 sR, (IGF-1 sR), CF (R&D Systems Cat#391-GR) (human, UniProt P08069 31-932).
T3 construct: Bought recombinant soluble receptor; also called insulin-like growth factor-1 soluble receptor
The description is as above.

For experiment [4], the target named is T4, rHuman Notch-1/Fc Chimera, CF (R&D Systems Cat#3647-TK) (human, UniProt P46531 19-526).
T4 construct: Bought recombinant protein; Fc part of the bought chimera not given
The experiment is described as above.

In experiment [5] the target is T5, rHuman CD44/Fc Chimera, CF (R&D Systems Cat#3660-CD) (human, UniProt P16070 21-220).
T5 construct: Bought recombinant protein; Fc part of the bought chimera not given
The experiment is described as above.

The target of experiment [6] is T6, rHuman ErbB2/Fc Chimera, CF (R&D Systems Cat#1129-ER) (human, UniProt P04626 23-652).
T6 construct: Bought recombinant protein; also called human epidermal growth factor 2 receptor; Fc part of the bought chimera not given
The experiment is described as above.

The target in experiment [7] is T7, rHuman P-Cadherin/Fc Chimera, CF (R&D Systems Cat#861-PC) (human, UniProt P22223 108-654).
T7 construct: Bought recombinant protein; Fc part of the bought chimera not given
The experiment is described as above.

The target of experiment [8] is T8, rHuman Erythropoietin R/Fc Chimera, CF (R&D Systems Cat#963-ER) (human, UniProt P19235 25-250).
T8 construct: Bought recombinant protein; also called EPO R; EPO R/Fc; Fc part of the bought chimera not given
T8 sequence (looked up): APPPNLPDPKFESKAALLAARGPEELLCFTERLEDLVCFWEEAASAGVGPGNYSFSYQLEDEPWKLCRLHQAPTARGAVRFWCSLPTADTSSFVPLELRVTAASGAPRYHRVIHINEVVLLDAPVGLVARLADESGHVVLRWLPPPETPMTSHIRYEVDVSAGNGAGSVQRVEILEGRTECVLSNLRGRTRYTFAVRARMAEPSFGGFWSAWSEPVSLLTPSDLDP
The description is as above.

The target of experiment [9] is T9, rHuman HGF R/c-MET/Fc Chimera, CF (R&D Systems Cat#358-MT/CF) (human, UniProt P08581 25-932).
T9 construct: Bought recombinant protein; also called HGF R/Fc; hepatocyte growth factor receptor; Fc part of the bought chimera not given
T9 sequence (P08581 25-932, change not shown): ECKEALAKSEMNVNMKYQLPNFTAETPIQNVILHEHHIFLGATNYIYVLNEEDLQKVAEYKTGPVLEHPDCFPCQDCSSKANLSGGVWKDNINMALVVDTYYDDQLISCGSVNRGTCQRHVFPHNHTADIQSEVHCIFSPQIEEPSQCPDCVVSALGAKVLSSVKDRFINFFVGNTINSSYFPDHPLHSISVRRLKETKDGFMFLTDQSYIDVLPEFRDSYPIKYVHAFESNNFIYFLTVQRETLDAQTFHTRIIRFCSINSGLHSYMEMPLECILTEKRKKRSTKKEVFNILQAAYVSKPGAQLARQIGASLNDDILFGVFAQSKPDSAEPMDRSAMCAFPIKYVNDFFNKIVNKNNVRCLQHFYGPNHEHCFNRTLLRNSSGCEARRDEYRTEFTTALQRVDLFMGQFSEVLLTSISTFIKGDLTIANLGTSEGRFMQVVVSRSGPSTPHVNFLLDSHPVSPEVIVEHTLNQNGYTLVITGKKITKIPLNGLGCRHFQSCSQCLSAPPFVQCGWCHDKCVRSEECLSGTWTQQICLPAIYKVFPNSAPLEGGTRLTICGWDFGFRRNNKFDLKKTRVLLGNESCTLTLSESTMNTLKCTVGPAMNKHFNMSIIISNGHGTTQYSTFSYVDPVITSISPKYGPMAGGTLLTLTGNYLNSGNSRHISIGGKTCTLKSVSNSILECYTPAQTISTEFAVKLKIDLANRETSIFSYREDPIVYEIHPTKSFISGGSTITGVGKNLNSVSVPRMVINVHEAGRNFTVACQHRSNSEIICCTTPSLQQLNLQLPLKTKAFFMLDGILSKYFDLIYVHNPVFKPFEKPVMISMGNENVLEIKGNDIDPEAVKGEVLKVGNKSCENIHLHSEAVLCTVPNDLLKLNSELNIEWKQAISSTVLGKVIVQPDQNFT
Described as above.

In experiment [10] the target is T1, Recombinant Human DLL4 (R&D Systems …). Kind of experiment: ECL multispot (MSD) assay, antigen spotted on plate; blank spot of this row 278.
Experiment [11] concerns the target T2, rHuman EGF R/Fc Chimera, CF (R&D …). Described as above.
Experiment [12] addresses T3, rHuman IGF-1 sR, (IGF-1 sR), CF (R&D …). Described as above.
Experiment [13] has as its target T4, rHuman Notch-1/Fc Chimera, CF (R&D …). The experiment is described as above.
The target of experiment [14] is T5, rHuman CD44/Fc Chimera, CF (R&D Systems …). Described as above.
For experiment [15], the target named is T6, rHuman ErbB2/Fc Chimera, CF (R&D …). The experiment is described as above.
Experiment [16] concerns the target T7, rHuman P-Cadherin/Fc Chimera, CF (R&D …). Described as above.
The target of experiment [17] is T8, rHuman Erythropoietin R/Fc Chimera, CF …. Described as above.
Experiment [18] deals with T9, rHuman HGF R/c-MET/Fc Chimera, CF (R&D …). Described as above.
Experiment [19] deals with T1, Recombinant Human DLL4 (R&D Systems …). Kind of experiment: ECL multispot (MSD) assay, antigen spotted on plate; blank spot of this row 332.
The target in experiment [20] is T2, rHuman EGF R/Fc Chimera, CF (R&D …). The experiment is described as above.
The target of experiment [21] is T3, rHuman IGF-1 sR, (IGF-1 sR), CF (R&D …). Described as above.
The target of experiment [22] is T4, rHuman Notch-1/Fc Chimera, CF (R&D …). The description is as above.
In experiment [23] the target is T5, rHuman CD44/Fc Chimera, CF (R&D Systems …). The description is as above.
Experiment [24] concerns the target T6, rHuman ErbB2/Fc Chimera, CF (R&D …). The description is as above.
For experiment [25], the target named is T7, rHuman P-Cadherin/Fc Chimera, CF (R&D …). Described as above.
The target of experiment [26] is T8, rHuman Erythropoietin R/Fc Chimera, CF …. Described as above.
Experiment [27] has as its target T9, rHuman HGF R/c-MET/Fc Chimera, CF (R&D …). The experiment is described as above.

B1: Fab VH1-46_IGHD6-6*01_IGHJ1*01 S102A/S103P/S104F/H111F (APFF) & L6_IGKJ1*01 S30Q (Fab, V domains shown)
VH: QVQLVQSGAEVKKPGASVKVSCKASGYTFTSYYMHWVRQAPGQGLEWMGIINPSGGSTSYAQKFQGRVTMTRDTSTSTVYMELSSLRSEDTAVYYCAREEYAPFSAEYFQFWGQGTLVTVSS
VL: EIVLTQSPATLSLSPGERATLSCRASQSVQSYLAWYQQKPGQAPRLLIYDASNRATGIPARFSGSGSGTDFTLTISSLEPEDFAVYYCQQRSNWPPWTFGQGTKVEIKR
notes: Fab made in E. coli: VH cloned into Plasmid A (CH1, His6 and Flag tags), kappa VL into Plasmid C (kappa CL); also called APFF / S30Q
Take B1: the ECL signal stood at 197000 in experiment [1]; 381 in experiment [2]; 354 in [3]; 326 in [4]; 411 in experiment [5]; 340 in experiment [6]. The figures for the ECL signal in experiment [7], in experiment [8] and in experiment [9] were 393, 376 and 344, respectively.

B2: Fab VH1-46_IGHD6-6*01_IGHJ1*01 S102A/S103P/S104F/H111F (APFF) & L6_IGKJ1*01 S30R (Fab, V domains shown)
VH: QVQLVQSGAEVKKPGASVKVSCKASGYTFTSYYMHWVRQAPGQGLEWMGIINPSGGSTSYAQKFQGRVTMTRDTSTSTVYMELSSLRSEDTAVYYCAREEYAPFSAEYFQFWGQGTLVTVSS
VL: EIVLTQSPATLSLSPGERATLSCRASQSVRSYLAWYQQKPGQAPRLLIYDASNRATGIPARFSGSGSGTDFTLTISSLEPEDFAVYYCQQRSNWPPWTFGQGTKVEIKR
notes: Fab made in E. coli: VH cloned into Plasmid A (CH1, His6 and Flag tags), kappa VL into Plasmid C (kappa CL); also called APFF / S30R
Consider B2, for which the ECL signal in experiment [10] is 189000; in experiment [11], 395; in [12] it was 422; in experiment [13], 313; in experiment [14], 472; in experiment [15], 404. Moreover, the ECL signal in [16] was found to be 442; in experiment [17], 525; in experiment [18], 452.

B3: Fab VH1-46_IGHD6-6*01_IGHJ1*01 S102A/S103P/S104F/H111F (APFF) & L6_IGKJ1*01 S31T (Fab, V domains shown)
VH: QVQLVQSGAEVKKPGASVKVSCKASGYTFTSYYMHWVRQAPGQGLEWMGIINPSGGSTSYAQKFQGRVTMTRDTSTSTVYMELSSLRSEDTAVYYCAREEYAPFSAEYFQFWGQGTLVTVSS
VL: EIVLTQSPATLSLSPGERATLSCRASQSVSTYLAWYQQKPGQAPRLLIYDASNRATGIPARFSGSGSGTDFTLTISSLEPEDFAVYYCQQRSNWPPWTFGQGTKVEIKR
notes: Fab made in E. coli: VH cloned into Plasmid A (CH1, His6 and Flag tags), kappa VL into Plasmid C (kappa CL); also called APFF / S31T
On to B3, for which the ECL signal was 191000 in experiment [19]; 351 in experiment [20]; 303 in experiment [21]; 261 in [22]; 384 in experiment [23]; 285 in [24]. Moreover, the ECL signal is 332 in experiment [25], 423 in [26] and 432 in [27].
